Data as given in paper PMC8764033, “Single-molecule analysis of specificity and multivalency in binding of short linear substrate motifs to the APC/C” (Nature Communications, 2022).
Values joined by “and” are separate entries in the source; they are usually repeats but may differ in a detail not shown here. Identical values can stand only once. Where no end group is shown, it is not given here. Cy5 = cyanine-5 fluorescent label

Key:
Settings in all cases: both partners purified
[1] = target: T1, WD40 domain of Cdh1 from Saccharomyces cerevisiae (aa 241–550), for anisotropy (S. cerevisiae, UniProt P53197 241-550); assay: fluorescence polarisation; fluorescence anisotropy as a1, 10 nM labeled Hsl1 degron peptide with 100 µM unlabeled peptide of the other Hsl1 degron present
T1 construct: Cdh1, S. cerevisiae, WD40 domain, aa 241-550; Cloned into pFastBac HT A; also called Cdh1^WD40; Cdh1 WD40; source: Sf9, baculovirus, purified (StrepTrap)
T1 sequence (looked up): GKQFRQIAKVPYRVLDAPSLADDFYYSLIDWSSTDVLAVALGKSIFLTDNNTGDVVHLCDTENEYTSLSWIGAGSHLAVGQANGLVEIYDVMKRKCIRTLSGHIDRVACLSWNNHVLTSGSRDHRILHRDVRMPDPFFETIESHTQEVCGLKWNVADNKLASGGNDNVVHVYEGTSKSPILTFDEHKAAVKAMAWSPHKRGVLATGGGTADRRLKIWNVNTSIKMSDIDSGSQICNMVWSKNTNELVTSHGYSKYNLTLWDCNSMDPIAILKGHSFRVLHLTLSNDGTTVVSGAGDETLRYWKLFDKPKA

[2] = target: T2, GFP-tagged WD40 domain of yeast Cdh1 (aa 241–550), for SMOR (S. cerevisiae, UniProt P53197 241-550); assay: fluorescence polarisation + other: single-molecule off-rate (SMOR) assay; inferred constants: kon from the KD of anisotropy and the koff of SMOR; KD for APC/C^Cdh1 from the dwell time with the kon of Cdh1 alone assumed
T2 construct: Cdh1, S. cerevisiae, WD40 domain, aa 241-550; also called Cdh1^WD40; GFP-tagged Cdh1^WD40; source: Sf9, baculovirus, purified (StrepTrap); not shown: 2xStrep-Tag II, N-terminal, kept; GFP, C-terminal, kept
T2 sequence (looked up): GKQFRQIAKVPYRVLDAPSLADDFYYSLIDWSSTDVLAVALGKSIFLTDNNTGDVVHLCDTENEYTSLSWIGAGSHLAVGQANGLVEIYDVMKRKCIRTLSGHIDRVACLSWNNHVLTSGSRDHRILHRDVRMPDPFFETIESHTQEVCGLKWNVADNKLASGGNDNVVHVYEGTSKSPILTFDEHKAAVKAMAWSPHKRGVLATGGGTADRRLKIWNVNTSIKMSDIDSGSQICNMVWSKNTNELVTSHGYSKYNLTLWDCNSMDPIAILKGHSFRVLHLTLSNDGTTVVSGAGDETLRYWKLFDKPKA

[3] = target: T3, Cdh1-activated yeast APC/C (S. cerevisiae | S. cerevisiae …, UniProt P53197 1-566; P53886 1-1748; P09798 1-840; P38042 1-758; P53068 1-250); assay: as above
T3 construct: Apc1 subunit of the APC/C, from yeast strain NHY13; Cdc16 subunit of the APC/C (Cdc16-TAP); Cdc27 subunit of the APC/C; Apc10/Doc1 subunit of the APC/C; only Apc1, Cdc16, Cdc27 and Apc10 are named; the yeast strain lacks endogenous Cdh1; TEV cleavage of the TAP tag may leave part of the tag on Cdc16; also called APC/C^Cdh1; not shown: 2xStrep-Tag II, N-terminal, kept; GFP, C-terminal, kept; …

[4] = target: T4, GFP-tagged WD40 domain of human Cdh1 (aa 165–484), for SMOR (human, UniProt Q9UM11 165-484); assay: as above
T4 construct: human Cdh1, WD40 domain, aa 165-484; also called hCdh1^WD40; human Cdh1^WD40; source: Sf9, baculovirus, purified (StrepTrap); not shown: 2xStrep-Tag II, N-terminal, kept; GFP, C-terminal, kept

[5] = target: T1, WD40 domain of Cdh1 from Saccharomyces …; assay: fluorescence polarisation; fluorescence anisotropy; 10 nM C-terminally Cy5-labeled peptide mixed with increasing concentrations of purified protein (Cdh1 WD40 up to 30.6 µM); wash buffer B (50 mM Tris-HCl pH 8, 150 mM KCl, 0.5 mM EDTA, 1 mM DTT, 10% glycerol); 25 °C; one-site equilibrium fit
[6] = target: T5, WD40 domain of human Cdh1 (aa 165–484), for anisotropy (human, UniProt Q9UM11 165-484); assay: as above
T5 construct: human Cdh1, WD40 domain, aa 165-484; Cloned into pFastBac HT A; also called human Cdh1 WD40; source: Sf9, baculovirus, purified (StrepTrap)

[7] = target: T6, WD40 domain of human Cdc20 (aa 162–484), for anisotropy (human, UniProt Q12834 162-484); assay: as above
T6 construct: human Cdc20, WD40 domain, aa 162-484; Cloned into pFastBac HT A; also called human Cdc20 WD40; source: Sf9, baculovirus, purified (StrepTrap)

[8] = target: T2, GFP-tagged WD40 domain of yeast Cdh1 …; assay: single-molecule off-rate (SMOR) assay, TIRF microscopy; target held on PEG/PEG-biotin glass by NeutrAvidin and biotinylated anti-Strep-Tag II antibody (tag on the activator); dye-labeled ligand (peptide no greater than 1 nM) in buffer C + BSA (20 mM HEPES pH 7.5, 150 mM KCl, 10% glycerol, 0.05% Tween-20, 1 mM DTT) with oxygen scavengers; mean dwell time from an exponential distribution; dwell times below 100 ms …
[9] = target: T2, GFP-tagged WD40 domain of yeast Cdh1 …; assay: as above; remark: listed apart in the source
[10] = target: T3, Cdh1-activated yeast APC/C; assay: as above
[11] = target: T7, Cdc20-activated yeast APC/C (S. cerevisiae | S. cerevisiae …, UniProt P26309 1-610; P53886 1-1748; P09798 1-840; P38042 1-758; P53068 1-250); assay: as above
T7 construct: Apc1 subunit of the APC/C, from yeast strain NHY13; Cdc16 subunit of the APC/C (Cdc16-TAP); Cdc27 subunit of the APC/C; Apc10/Doc1 subunit of the APC/C; only Apc1, Cdc16, Cdc27 and Apc10 are named; TEV cleavage of the TAP tag may leave part of the tag on Cdc16; also called APC/C^Cdc20; not shown: 2xStrep-Tag II, N-terminal, kept; GFP, C-terminal, kept; copies: + + + + + + + + + + + + +

[12] = target: T4, GFP-tagged WD40 domain of human Cdh1 …; assay: as above
[13] = target: T8, GFP-tagged WD40 domain of human Cdc20 (aa 162–484), for SMOR (human, UniProt Q12834 162-484); assay: as above
T8 construct: human Cdc20, WD40 domain, aa 162-484; also called hCdc20^WD40; human Cdc20^WD40; source: Sf9, baculovirus, purified (StrepTrap); not shown: 2xStrep-Tag II, N-terminal, kept; GFP, C-terminal, kept
T8 sequence (Q12834 162-484): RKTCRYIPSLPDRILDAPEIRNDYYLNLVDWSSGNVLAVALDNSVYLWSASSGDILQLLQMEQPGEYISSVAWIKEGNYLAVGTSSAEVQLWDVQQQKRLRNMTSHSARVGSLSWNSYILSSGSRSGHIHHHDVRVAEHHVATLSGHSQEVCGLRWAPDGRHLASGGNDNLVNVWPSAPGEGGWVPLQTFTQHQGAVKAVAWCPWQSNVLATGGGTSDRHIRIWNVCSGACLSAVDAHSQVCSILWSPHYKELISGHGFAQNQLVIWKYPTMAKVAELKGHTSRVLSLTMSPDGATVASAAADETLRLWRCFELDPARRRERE

T4 sequence (Q9UM11 165-484): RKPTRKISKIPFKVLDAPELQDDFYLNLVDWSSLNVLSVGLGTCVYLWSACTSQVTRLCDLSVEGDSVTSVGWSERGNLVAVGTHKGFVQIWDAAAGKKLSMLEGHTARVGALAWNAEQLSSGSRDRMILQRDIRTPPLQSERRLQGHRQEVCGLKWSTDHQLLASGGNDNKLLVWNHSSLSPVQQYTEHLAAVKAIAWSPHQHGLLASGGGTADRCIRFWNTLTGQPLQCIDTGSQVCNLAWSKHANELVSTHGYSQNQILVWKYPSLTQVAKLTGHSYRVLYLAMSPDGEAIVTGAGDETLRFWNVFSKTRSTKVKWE
T5 sequence (Q9UM11 165-484): as above
T6 sequence (Q12834 162-484): as the sequence (Q12834 162-484) above

B1: Cy5-labeled Hsl1 D box peptide (peptide)
chain: EQKPKRAALSDITNSFNKMNK-Cy5
fold improvement of affinity with unlabeled Hsl1 KEN peptide, against no KEN peptide [1]: ~3 fold
kon [2]: 800000 M⁻¹ s⁻¹
Kd [3]: 0.036 µM
kon [4]: 100000 M⁻¹ s⁻¹
Kd [5]: 3.5 µM and 4 µM
Kd [6]: ~2 µM
Kd [7]: ~2 µM
koff [8]: 2.8 s⁻¹
mean dwell time [9]: 0.36 s
mean dwell time [10]: 35.3 s
mean dwell time [11]: 0.412 s
mean dwell time [12]: 4.52 s
mean dwell time [13]: 1.08 s

B2: Cy5-labeled Hsl1 KEN peptide (peptide)
chain: GVSTNKENEGPEYPTKIEK-Cy5
fold improvement of affinity with saturating unlabeled D box peptide, against no D box peptide [1]: ~4 fold
Kd [5]: 14 µM and 12 µM
mean dwell time [9]: 0.166 s
mean dwell time [10]: 0.185 s
mean dwell time [12]: 1.48 s

B3: Cy5-labeled AurKB D box peptide (peptide)
chain: LPKATRKALGTVNRATEKSVKK-Cy5
mean dwell time [12]: 0.202 s

B4: Hsl1 fragment (amino acids 667–872) with C-terminal HaloTag, mutations in the D box (domain or fragment)
chain: QNSASKRSLYSLQSISKRSLNLNDLLVFDDPLPSKKPASENVNKSEPHSLESDSDFEILCDQILFGNALDRILEEEEDNEKERDTQRQRQNDTKSSADTFTISGVSTNKENEGPEYPTKIEKNQFNMSYKPSENMSGLSSFPIFEKENTLSSSYLEEQKPKAAAASDITASFNKMNKQEGMRIEKKIQREQLQKKNDRPSPLKPIQ
modifications: JF549 or JF646 dye covalently bound to the HaloTag
mean dwell time [9]: 0.421 s
mean dwell time [10]: 0.374 s

B5: Cy5-labeled hSecurin KEN box peptide (peptide)
chain: LIYVDKENGEPGTRK-Cy5
mean dwell time [12]: 0.174 s

B6: Cy5-labeled ySecurin KEN peptide (peptide)
chain: PANEDKENNIVYTGK-Cy5
Kd [5]: 26 µM and 40 µM
mean dwell time [12]: 0.869 s

B7: Cy5-labeled Clb5 D box peptide (peptide)
chain: QDSKPRRALTDVPVNNNPLSQK-Cy5
mean dwell time [10]: 0.159 s
mean dwell time [11]: 0.207 s
mean dwell time [13]: 0.054 s

B8: Cy5-labeled ySecurin D box peptide (peptide)
chain: AQQQGRLPLAAKDNNRSKSFIK-Cy5
mean dwell time [10]: 0.132 s
mean dwell time [11]: 1.87 s
